This data set can be described thus: yeast display, Sf9 membrane polyspecificity reagent, FACS + sequencing; frameworks hold sequencing errors. The method, boiled down:
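A nanobody's polyreactivity label depends on the gate it was sorted from. Yeast display cells were stained with 10% biotinylated, detergent-solubilized Sf9 membrane reagent for 1 hour at 4 °C, enriched on streptavidin microbeads and sorted by FACS. The low and high (top ~1%) gates were set on anti-HA fluorescence for expression and streptavidin fluorescence for reagent binding.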
“RVQLQESGGGLVQAGGSLRLSCAASGTIFIRGDMGWYRQAPGKEREFVATIDTGSNTYYADSEKGRFTISRDNAKNAVYLQMNCQQPGDTAVYYCVVDYQLSGRLRYWGQGTQVTLSS”: the “polyreactivity (PSR sort gate)” value was “low polyreactivity”.
To “QVQLVESGGGLVQAGGSLRLSCAASGRIFAYNTMGWYRQAHGKEREFVAVITSGGSTNYADSVKGRFTISRDNAKNTVFLLLNSLKPEDTAVYYCAKRPYGRSGGSRYDYWGQGTKVTVSS” belongs “high polyreactivity”.
To “QVQLVESGGGLLQAGGSLRLSCAASGSIFTYYAMGWYRQAPGKEREFVAAINYGGGSTYYADSVKGRFTISRDNAKNTVYLQMNSQKPEDTAVYYCNARTFGPNGKHRYGYWGQGTQVSVSS” belongs “high polyreactivity”; to “QVQLVDSGGGLVQAGGSLRLICAASGRTFYYYAMGWYRQAPGKERELVAGISSGVSTTYADSVKGRFTISRDNAKNTVYLQLNSLKPEDTAFYYCAARWRPNRAYIGYDYWGQGTQVTVSS”, “low polyreactivity”.
The entry for “QVQLVESGGGLVQAGGSLRLSCAASGSIFQHNDMGWYRQAPGKERELVAAMSRSGGSTYYADSVKGRFTISRDNAKNTVYLQRNSLKPEDTAVYYCNAGRRTGRYAYWGQGTQVTVSS” is “high polyreactivity”; for “QVQLVESAGGLVQAGGSLRLSCAASGSIFQGNARGWYRQAPGKERELVAAISQSGGRTYYADSVKGRFTISRDNAKNTVYLQMISLKPEDTAVYYCNTTKVYRLRFDYWGQGTQVTVSS” it is “low polyreactivity”.
On to “QVQLVESGGGLDQAGGSLRLSCAASGITFKSNAMGWYRQAPGKESELVAAISRRASSTYYADSVKGRFTISRDNAKHTVYLQMNSLKPEDTAVYYCNAVLPVYRTNMDYWGQGTQVTVSS”, for which the “polyreactivity (PSR sort gate)” value was “high polyreactivity”.
The entry for “QVQLVESGVGLVQAGGSLRLSCAASGNTFGKYAMGWYRQAPGTERELVATITRRGGSTYYADSVKGRFTISRDKAKNSVYLQMNSLKPEDTAVYYCNRAVTYVTYVYWGQGTQVTVSS” is “high polyreactivity”; for “QDQLVESCGALVQAGGSLRLSCAASGSTFNFYAMGWYRQAPGKERELVAAITWRGGSTYYADSVKGRFTISRDFAKNTVYLQMNSLKPEDSAVYYCAAARGKDGYWGQGTQVNVSS” it is “high polyreactivity”; for “QVQLVESGGGLVQAGGSLRLSCAASGSTYTNAMGWYRQAPGKERELVAAITWSGGTTYYADSVKGRFTISLDNAKNTVYLPMNSLKPEDTAVYYCAAEYRWYSWGQGTQVSVSS” it is “high polyreactivity”.
To “QVQLVESGGGLVQAGGSLRLSCAASGSTFTAYAMGWYRQAPGKERELVAAISKRSGGTYYADSVKGRFTISRDNAKNTVYLQMNSLKPEDTAVYYCGQGTQVTVSS” belongs “low polyreactivity”; to “QVQLVESGGGLVQAGGSLRLSCAASGRTFRYYAMGWYRQAPGKERELVAAISSRGNTYYADSVKGRFTISRDNAKNTVYLQMNSLKPEDTAVYYCAAYVYRVQYDFDYWGQGTQVTVSS”, “high polyreactivity”; to “QVQLVESGGGLVQAGGSLRLSCAASGIIFPFYAMGWYRQAPGKERELVAAITSDGNTNYADSVKGRFTISRDNAKNTVYLQMNSLKPEDTAVYYCNAETQYGVLSWHSTRHDYWGQGTQVTVSS”, “low polyreactivity”.
The entry for “QVQLVESVGGLVQAGRSLRLSCAASGSIFLRNAMGWYRQPPGKERELVASITWNGASTSYADSVKGRFTISRDNAKNTVYLQMNSLKPEDTAVYYCAAVTVQDSNLKYGYWGQGTQVTVSS” is “low polyreactivity”; for “QVQLVESGGGLVQAGGSLRLICAASGITFLQYARGWYRQATGKERELVAVISRGSRTYYADSVKGRFTISRDNAKNTFYLQMNSLKPEDTAVYYCAAVRGLAVGYDYWGQGTQVTVSS” it is “high polyreactivity”; for “QVQLVESGGGLVQAGGSLGLSCAASGFTFHNYAMGWYRQAPGKERELVAAITWDGGSTYYAVSVKGRFTISRDKAKNTVDLQMNSLKPEDTAVYYCALDPYYYYYGDYNFDYWGQGTQVTVSS” it is “high polyreactivity”.
Take “QVQLVESGGGLVQAGGSLRLSFAASGRIFGENAMGWYRQAPGKEREFVAVISISDASTYYADSVKGRFTLSRDNAKNTVYLQMNSLKPEDTAVYYWAADLTDFLYVASDYWGQGTQVTVSS”: the “polyreactivity (PSR sort gate)” value is given as “low polyreactivity”.
To “QVQLVESGGGLVQAGGSLRLSCAASGRIFSYNVMGWYRQAPGKERELVAAITSNDGSTYYADSVKGRFTISRDNAKNTVYLQMNSLKPEVTAVYYCNADYGPVSLKEPFRDDYWGQGNQVTVSS” belongs “low polyreactivity”.
Consider “QVQLVESGGGLVQAGGSLRLSCAASGIILTQNAMGWYRQEPGKVRELVAAITESGARTYYADSVMGRFTISRDTAQNTVYLQMNSLKPEATAVYYCATEGPWGYDYWGIGTQVTVSS”, for which the “polyreactivity (PSR sort gate)” value was “low polyreactivity”.
The entry for “QVQLVESGGGLVQAGGSLRLSCAASGRIFYTNAMGWYRQAPGKERELVAVISWGGDTTYYADSVKGRFTISRDNAKNTVYLQMNSLKPEDTAVYYCKADWGPTYEIYDSWGQGTQVTVSS” is “low polyreactivity”; for “QVQLVESGGGLVQAGGSLRLSCAASGRTFRKYAMGWYRQAPGKERELVAAISWSGGSTYYANSVKGRFTISRDNAKNTVYLQMNSLKPEDTAVYYCAAVPVHTGSLYWGFTTGYDYWGQGTQVTVSS” it is “low polyreactivity”; for “QVQLVESGGGLVQAGGRLRLSCAASGRTFYYYAMGWYRQAPGKERELVASITYRGTRTNYADSVKGRFTISRDNAKNTVYLQMNILKPEDTAVYSCNAEVYTGYGYWGQGTQVTVSS” it is “high polyreactivity”.
To “QVQLVESGGGIVQAGGSLRLSCAASGLTFPQYAMGWYTQAPGKERELVAAISWNGGITYYADSVKGRFTISRDYAKNTVYLQMNSLKPEDTAVYYCNDDGGYGDYYYWGQGTQVTVSS” belongs “low polyreactivity”; to “QVQLVESGGGLVQAGGSLRLSCAASGSIFAYYAMGWYRQAPGKEREFVAAISKRGGRTYYADSVKGRFTISRDNAKNTVYLQMNSLKPEDTAVYYCAAPWAYPRSGGDYWGQGTQVTVSS”, “high polyreactivity”.
The entry for “QEKHVESGGGLVQAGGSLLLSCAASGLTFYHNAMGWYRQAPGKERELVAAISSGGTTNYADSVKGRFTISRDNAKNTVYLQMNSLTPEDTAVYYCAARGWGPTRAYDYWGQGTQVTLSS” is “high polyreactivity”; for “HVQLVESGGGIVQAGGSLRLSSAASGSTFGSNAMGWYRQAPGKERELVAAITYSGGRTYYADSVKGRFTISRDNAKNTVYLQMNSLKPEDTAVYYCAATFGFFYYQYDYWGQGTQVTVSS” it is “low polyreactivity”.
As to “QVQLVESGGGLVQAGGSLRLSCAASGRIFAYYAMGWYRQAPGKERELVAAITTNGGGTYYADSVKGRFTISRDNETNTVYLQMNSLKAEDTAVYYCAKRSWIEYDYWGQGTQVTVSS”, the “polyreactivity (PSR sort gate)” value is recorded as “low polyreactivity”.
Take “QVQLVESGGGLVQAGGSLRLSCAASGSISIGYTMGWYRQSPGKERDLVATISWSGGNTYYADSVKGRFTIARDNAKNTVYLQINSLKPEDSAVYYFAARWYYYPLLYDYWGQGTQVTVSS”: the “polyreactivity (PSR sort gate)” value is recorded as “low polyreactivity”.
The entry for “QVQLVESGGGLVQAGGSLRLSCAASGSIFFYYAMGWYRQAPGKERELVAAINWSGVNTYYADSVKGRFTISRDNAKNTVYLQMNSLKPEDTAVYYFNAVVSLTSYGYLGYLFDYWGQGTLVTVSS” is “low polyreactivity”; for “QVQLVESGGGLVQAGGSLRLSCAASGSIGYYAMGWYRQAPGKERELVAVISRSGTGTSYADSVKGRFTISRDNAKNTVYSQMTSLKPEDTAVYYCNAETYTYRYENDYWGQGTQVTVSS” it is “high polyreactivity”.

(Values after the nanobody polyreactivity screen of Harvey et al. (2022).)
